Measured values: the Human Domainome abundance scans (Beltran et al. 2025)
± gives the uncertainty stated by the source.

B1: REST corepressor 3, residues 87 to 134; numbered along this chain, Q9P2K3 (parent)
chain: DEWTVEDKVLFEQAFSFHGKSFHRIQQMLPDKTIASLVKYYYSWKKTR
B2: Zinc finger homeobox protein 4, residues 2086 to 2141; numbered along this chain, Q86UP3 (parent)
chain: RPRTRITDDQLKILRAYFDINNSPSEEQIQEMAEKSGLSQKVIKHWFRNTLFKERQ

Variants of: B1
Test: abundance fitness (aPCA) (normalised: wild type 0, dead -1); higher = more abundant; growth selection in yeast, the domain comes from the species named
Details: Homo sapiens

D1E and D1G are within error of each other in abundance fitness: -0.195 ± 0.25 for the first, 0.138 ± 0.13 for the second.

D7P and D7W are within error of each other in abundance fitness: -0.411 ± 0.4 for the first, -0.762 ± 0.36 for the second.

D7G and D7L are within error of each other in abundance fitness: -0.571 ± 0.15 for the first, -0.796 ± 0.21 for the second.

D7N and D7S are within error of each other in abundance fitness: -0.821 ± 0.23 for the first, -0.611 ± 0.17 for the second.

D7T and D7Q are within error of each other in abundance fitness: -0.708 ± 0.43 for the first, -0.156 ± 0.22 for the second.

D7E and D7Y are within error of each other in abundance fitness: -0.617 ± 0.34 for the first, -0.686 ± 0.45 for the second.

D7A and D7V are within error of each other in abundance fitness: -0.811 ± 0.34 for the first, -0.687 ± 0.21 for the second.

E6T and E6L are within error of each other in abundance fitness: -0.323 ± 0.2 for the first, -0.614 ± 0.2 for the second.

E6F and E6A are within error of each other in abundance fitness: -0.542 ± 0.43 for the first, -0.388 ± 0.15 for the second.

First: E6D
Second: E6Q
The abundance fitness of the first is lower: -0.466 ± 0.16 for the first, 0.293 ± 0.48 for the second.

First: E6R
Second: E6V
The abundance fitness of the first is higher: -0.273 ± 0.11 for the first, -0.777 ± 0.33 for the second.

E6I and T4L are within error of each other in abundance fitness: -0.58 ± 0.46 for the first, -0.727 ± 0.15 for the second.

Going from T4N to T4G, the abundance fitness falls from -0.257 ± 0.3 to -0.84 ± 0.28.

T4P and T4D are within error of each other in abundance fitness: -0.83 ± 0.48 for the first, -0.53 ± 0.38 for the second.

T4S and T4V are within error of each other in abundance fitness: -0.198 ± 0.14 for the first, -0.756 ± 0.45 for the second.

T4R and V5G are within error of each other in abundance fitness: -0.634 ± 0.25 for the first, -0.658 ± 0.14 for the second.

V5T and V5L are within error of each other in abundance fitness: -0.436 ± 0.27 for the first, -0.458 ± 0.18 for the second.

V5S and V5R are within error of each other in abundance fitness: -0.3 ± 0.13 for the first, -0.163 ± 0.11 for the second.

V5C and V5A are within error of each other in abundance fitness: -0.478 ± 0.37 for the first, -0.137 ± 0.11 for the second.

V5Q and V5M are within error of each other in abundance fitness: -0.154 ± 0.15 for the first, -0.612 ± 0.31 for the second.

V5K and V5Y are within error of each other in abundance fitness: 0.208 ± 0.13 for the first, 0.218 ± 0.12 for the second.

Compared with V5E, V5P is lower in abundance fitness: 0.388 ± 0.11 for the first, -0.393 ± 0.23 for the second.

V5D and V5I are within error of each other in abundance fitness: -0.104 ± 0.17 for the first, -0.316 ± 0.18 for the second.

First: V5F
Second: E2K
The abundance fitness of the first is lower: -0.222 ± 0.32 for the first, 0.3 ± 0.17 for the second.

E2R and E2S are within error of each other in abundance fitness: -0.107 ± 0.16 for the first, -0.441 ± 0.3 for the second.

E2Q and E2V are within error of each other in abundance fitness: -0.486 ± 0.47 for the first, -0.859 ± 0.3 for the second.

E2Y and E2L are within error of each other in abundance fitness: -0.208 ± 0.32 for the first, -0.593 ± 0.3 for the second.

First: E2C
Second: E2A
The abundance fitness of the first is higher: -0.116 ± 0.33 for the first, -0.797 ± 0.33 for the second.

E2N and E2G are within error of each other in abundance fitness: 0.294 ± 0.24 for the first, 0.037 ± 0.11 for the second.

E2T and E2H are within error of each other in abundance fitness: -0.302 ± 0.26 for the first, -0.265 ± 0.45 for the second.

W3V and W3G are within error of each other in abundance fitness: -0.677 ± 0.23 for the first, -0.912 ± 0.33 for the second.

W3R and W3S are within error of each other in abundance fitness: -1.02 ± 0.32 for the first, -0.651 ± 0.38 for the second.

W3L and W3C are within error of each other in abundance fitness: -0.858 ± 0.4 for the first, -0.776 ± 0.32 for the second.

W3I and W3M are within error of each other in abundance fitness: -0.465 ± 0.46 for the first, -0.629 ± 0.39 for the second.

W3F and K8I are within error of each other in abundance fitness: -0.264 ± 0.12 for the first, -0.388 ± 0.5 for the second.

K8P and K8H are within error of each other in abundance fitness: -0.763 ± 0.32 for the first, -0.594 ± 0.32 for the second.

K8G and K8Q are within error of each other in abundance fitness: -0.673 ± 0.12 for the first, -0.457 ± 0.38 for the second.

Compared with K8L, K8M is higher in abundance fitness: -0.779 ± 0.38 for the first, -0.035 ± 0.13 for the second.

Variants of: B2
Test: as above
Details: Homo sapiens

R55P and R55Y are within error of each other in abundance fitness: -0.118 ± 0.18 for the first, -0.431 ± 0.16 for the second.

First: R55Q
Second: R55I
The abundance fitness of the first is higher: -0.028 ± 0.12 for the first, -0.632 ± 0.2 for the second.

R55W and R55H are within error of each other in abundance fitness: -0.215 ± 0.08 for the first, 0.256 ± 0.49 for the second.

R55F and R55T are within error of each other in abundance fitness: -0.125 ± 0.26 for the first, -0.158 ± 0.12 for the second.

R55E and R55A are within error of each other in abundance fitness: -0.059 ± 0.099 for the first, -0.025 ± 0.088 for the second.

R55C and R55L are within error of each other in abundance fitness: 0.016 ± 0.12 for the first, -0.091 ± 0.087 for the second.

R55D and R55S are within error of each other in abundance fitness: -0.163 ± 0.14 for the first, -0.011 ± 0.09 for the second.

R55M and R55V are within error of each other in abundance fitness: -0.198 ± 0.12 for the first, -0.204 ± 0.078 for the second.

R55G and R55N are within error of each other in abundance fitness: -0.038 ± 0.067 for the first, -0.255 ± 0.2 for the second.

Compared with Q56E, Q56R is higher in abundance fitness: -0.77 ± 0.38 for the first, -0.024 ± 0.12 for the second.

Q56V and Q56N are within error of each other in abundance fitness: -0.568 ± 0.38 for the first, -0.083 ± 0.18 for the second.

Q56A and Q56S are within error of each other in abundance fitness: -0.646 ± 0.44 for the first, -0.502 ± 0.22 for the second.

Going from Q56K to Q56G, the abundance fitness falls from 0.295 ± 0.33 to -0.439 ± 0.17.

Q56W and Q56H are within error of each other in abundance fitness: -0.492 ± 0.21 for the first, -0.363 ± 0.24 for the second.

First: Q56M
Second: Q56C
The abundance fitness of the first is higher: -0.12 ± 0.18 for the first, -0.802 ± 0.28 for the second.

Q56L and Q56T are within error of each other in abundance fitness: -0.214 ± 0.18 for the first, -0.07 ± 0.17 for the second.

K53D and K53T are within error of each other in abundance fitness: -0.041 ± 0.16 for the first, -0.042 ± 0.12 for the second.

K53Y and K53G are within error of each other in abundance fitness: -0.064 ± 0.17 for the first, -0.071 ± 0.074 for the second.

K53S and K53Q are within error of each other in abundance fitness: 0.016 ± 0.084 for the first, -0.072 ± 0.12 for the second.

K53M and K53I are within error of each other in abundance fitness: -0.114 ± 0.13 for the first, 0.141 ± 0.17 for the second.

K53H and K53F are within error of each other in abundance fitness: 0.023 ± 0.13 for the first, -0.284 ± 0.18 for the second.

K53N and K53L are within error of each other in abundance fitness: -0.023 ± 0.15 for the first, 0.06 ± 0.084 for the second.

K53V and K53C are within error of each other in abundance fitness: -0.157 ± 0.091 for the first, -0.201 ± 0.12 for the second.

K53W and K53P are within error of each other in abundance fitness: -0.131 ± 0.093 for the first, -0.285 ± 0.12 for the second.

E54V and E54C are within error of each other in abundance fitness: -0.057 ± 0.076 for the first, -0.205 ± 0.093 for the second.

E54F and E54S are within error of each other in abundance fitness: -0.231 ± 0.12 for the first, -0.047 ± 0.08 for the second.

E54L and E54Q are within error of each other in abundance fitness: -0.035 ± 0.074 for the first, -0.206 ± 0.1 for the second.

E54D and E54T are within error of each other in abundance fitness: -0.102 ± 0.11 for the first, -0.189 ± 0.091 for the second.

E54R and E54K are within error of each other in abundance fitness: -0.1 ± 0.066 for the first, -0.169 ± 0.13 for the second.

E54G and E54A are within error of each other in abundance fitness: -0.17 ± 0.07 for the first, -0.082 ± 0.073 for the second.

E54I and E54P are within error of each other in abundance fitness: -0.403 ± 0.2 for the first, -0.182 ± 0.11 for the second.

E54N and E54M are within error of each other in abundance fitness: -0.149 ± 0.15 for the first, -0.375 ± 0.13 for the second.

E54H and E54W are within error of each other in abundance fitness: -0.238 ± 0.13 for the first, -0.215 ± 0.095 for the second.

L51Q and L51Y are within error of each other in abundance fitness: 0.126 ± 0.12 for the first, -0.098 ± 0.18 for the second.

L51P and L51S are within error of each other in abundance fitness: -0.125 ± 0.12 for the first, -0.1 ± 0.1 for the second.

L51R and L51V are within error of each other in abundance fitness: -0.092 ± 0.089 for the first, 0.04 ± 0.09 for the second.

L51T and L51W are within error of each other in abundance fitness: -0.065 ± 0.12 for the first, -0.163 ± 0.1 for the second.

F52V and F52Y are within error of each other in abundance fitness: 0.062 ± 0.17 for the first, -0.02 ± 0.17 for the second.

F52A and F52G are within error of each other in abundance fitness: -0.029 ± 0.15 for the first, 0.035 ± 0.17 for the second.

F52K and F52H are within error of each other in abundance fitness: 0.068 ± 0.19 for the first, 0.018 ± 0.15 for the second.

F52I and F52L are within error of each other in abundance fitness: 0.014 ± 0.14 for the first, -0.005 ± 0.094 for the second.

F52M and F52R are within error of each other in abundance fitness: -0.131 ± 0.19 for the first, 0.184 ± 0.13 for the second.

F52N and F52S are within error of each other in abundance fitness: 0.134 ± 0.15 for the first, -0.067 ± 0.12 for the second.

F52Q and F52C are within error of each other in abundance fitness: 0.006 ± 0.24 for the first, 0.13 ± 0.16 for the second.

F52W and F52T are within error of each other in abundance fitness: -0.174 ± 0.31 for the first, 0.052 ± 0.11 for the second.

F52D showed an abundance fitness of -0.085 ± 0.24.
